# Positions count from the first letter of the chain named. Names and notes keep the numbering of the source.
# B1: reovirus type 3 Dearing (T3D) spike protein σ1, wild type (natural protein)
# chain: MDPRLREEVVRLIIALTSDNGASLSKGLESRVSALEKTSQIHSDTILRITQGLDDANKRIIALEQSRDDLVASVSDAQLAISRLESSIGALQTVVNGLDSSVTQLGARVGQLETGLAELRVDHDNLVARVDTAERNIGSLTTELSTLTLRVTSIQADFESRISTLERTAVTSAGAPLSIRNNRMTMGLNDGLTLSGNNLAIRLPGNTGLNIQNGGLQFRFNTDQFQIVNNNLTLKTTVFDSINSRIGATEQSYVASAVTPLRLNSSTKVLDMLIDSSTLEINSSGQLTVRSTSPNLRYPIADVSGGIGMSPNYRFRQSMWIGIVSYSGSGLNWRVQVNSDIFIVDDYIHICLPAFDGFSIADGGDLSLNFVTGLLPPLLTGDTEPAFHNDVVTYGAQTVAIGLSSGGAPQYMSKNLWVEQWQDGVLRLRVEGGGSITHSNSKWPAMTVSYPRSFT
# modifications: [35S]-methionine labelled
# notes: a stop codon was introduced behind the S1 ORF so that the Myc-His tag of the vector is absent; also called wt σ1; wt T3D σ1
# B2: reovirus T3D spike protein σ1 with the Y313A substitution (natural protein)
# chain: B1 chain with Y313A
# modifications: [35S]-methionine labelled
# notes: Outer capsid (attachment/spike) protein σ1 of mammalian reovirus type 3 Dearing, S1 ORF without tag, with Y313A made by mutation PCR on pDGC-S1delTag; Forms only intermediate trimers (shaft trimerized, head monomeric), no mature trimers; Parent plasmid as for m1; also called σ1-Y313A; S1Y313A
# B3: reovirus T3D spike protein σ1 with the Q336R substitution (natural protein)
# chain: B1 chain with Q336R
# modifications: [35S]-methionine labelled
# notes: Outer capsid (attachment/spike) protein σ1 of mammalian reovirus type 3 Dearing, S1 ORF without tag, with Q336R made by mutation PCR on pDGC-S1delTag; Q336R arose spontaneously in the jin-1 and jin-2 viruses; Carries only Q336R, not T193M of jin-1 or G187R of jin-2; Parent plasmid as for m1; also called σ1-Q336R; S1Q336R
# Molecular target: the molecule itself
# Assay: in vitro trimerization assay (mild SDS-PAGE at 4°C); [35S]-methionine labelled in vitro transcription-translation products incubated in sample buffer (2% SDS, 2.5% β-mercaptoethanol) 30 min at 37°C (or boiled 5 min to disrupt trimers), run on a 10% SDS-polyacrylamide gel kept at 4°C, autoradiography
row,Protein,stoichiometry N
1,B1,3
2,B2,3
3,B3,3
